Reference: IntAct's records for PubMed 15486100

B1: Transcription factor PIF3 (Arabidopsis thaliana (Mouse-ear cress)), O80536 (parent)
chain: MPLFELFRLTKAKLESAQDRNPSPPVDEVVELVWENGQISTQSQSSRSRNIPPPQANSSRAREIGNGSKTTMVDEIPMSVPSLMTGLSQDDDFVPWLNHHPSLDGYCSDFLRDVSSPVTVNEQESDMAVNQTAFPLFQRRKDGNESAPAASSSQYNGFQSHSLYGSDRARDLPSQQTNPDRFTQTQEPLITSNKPSLVNFSHFLRPATFAKTTNNNLHDTKEKSPQSPPNVFQTRVLGAKDSEDKVLNESVASATPKDNQKACLISEDSCRKDQESEKAVVCSSVGSGNSLDGPSESPSLSLKRKHSNIQDIDCHSEDVEEESGDGRKEAGPSRTGLGSKRSRSAEVHNLSERRRRDRINEKMRALQELIPNCNKVDKASMLDEAIEYLKSLQLQVQIMSMASGYYLPPAVMFPPGMGHYPAAAAAMAMGMGMPYAMGLPDLSRGGSSVNHGPQFQVSGMQQQPVAMGIPRVSGGGIFAGSSTIGNGSTRDLSGSKDQTTTNNNSNLKPIKRKQGSSDQFCGSS
B2: Transcription factor PIF4 (Arabidopsis thaliana (Mouse-ear cress)), Q8W2F3-2 (parent)
chain: MEHQGWSFEENYSLSTNRRSIRPQDELVELLWRDGQVVLQSQTHREQTQTQKQDHHEEALRSSTFLEDQETVSWIQYPPDEDPFEPDDFSSHFFSTMDPLQRPTSETVKPKSSPEPPQVMVKPKACPDPPPQVMPPPKFRLTNSSSGIRETEMEQYSVTTVGPSHCGSNPSQNDLDVSMSHDRSKNIEEKLNPNASSSSGGSSGCSFGKDIKEMASGRCITTDRKRKRINHTDESVSLSDAIGNKSNQRSGSNRRSRAAEVHNLSERVLHRFVYIIYNI
B3: Transcription factor PIF5 (Arabidopsis thaliana (Mouse-ear cress)), Q84LH8 (parent)
chain: MEQVFADWNFEDNFHMSTNKRSIRPEDELVELLWRDGQVVLQSQARREPSVQVQTHKQETLRKPNNIFLDNQETVQKPNYAALDDQETVSWIQYPPDDVIDPFESEFSSHFFSSIDHLGGPEKPRTIEETVKHEAQAMAPPKFRSSVITVGPSHCGSNQSTNIHQATTLPVSMSDRSKNVEERLDTSSGGSSGCSYGRNNKETVSGTSVTIDRKRKHVMDADQESVSQSDIGLTSTDDQTMGNKSSQRSGSTRRSRAAEVHNLSERRRRDRINERMKALQELIPHCSRTDKASILDEAIDYLKSLQMQLQVMWMGSGMAAAAAAAASPMMFPGVQSSPYINQMAMQSQMQLSQFPVMNRSAPQNHPGLVCQNPVQLQLQAQNQILSEQLARYMGGIPQMPPAGNQMQTVQQQPADMLGFGSPAGPQSQLSAPATTDSLHMGKIG
B4: Transcription factor PIF6 (Arabidopsis thaliana (Mouse-ear cress)), Q8L5W7 (parent)
chain: MMFLPTDYCCRLSDQEYMELVFENGQILAKGQRSNVSLHNQRTKSIMDLYEAEYNEDFMKSIIHGGGGAITNLGDTQVVPQSHVAAAHETNMLESNKHVDDSETLKASSSKRMMVDYHNRKKIKFIPPDEQSVVADRSFKLGFDTSSVGFTEDSEGSMYLSSSLDDESDDARPQVPARTRKALVKRKRNAEAYNSPERNQRNDINKKMRTLQNLLPNSHKDDNESMLDEAINYMTNLQLQVQMMTMGNRFVTPSMMMPLGPNYSQMGLAMGVGMQMGEQQFLPAHVLGAGLPGINDSADMLRFLNHPGLMPMQNSAPFIPTENCSPQSVPPSCAAFPNQIPNPNSLSNLDGATLHKKSRKTNR

Variants of: B1
Details: with phyb_arath PHYB
With MPLFELFRLTKAKLESAQDRNPSPPVDEVVALVWENAQISTQSQSSRSRNIPPPQANSSRAREIGNGSKTTMVDEIPMSVPSLMTGLSQDDDFVPWLNHHPSLDGYCSDFLRDVSSPVTVNEQESDMAVNQTAFPLFQRRKDGNESAPAASSSQYNGFQSHSLYGSDRARDLPSQQTNPDRFTQTQEPLITSNKPSLVNFSHFLRPATFAKTTNNNLHDTKEKSPQSPPNVFQTRVLGAKDSEDKVLNESVASATPKDNQKACLISEDSCRKDQESEKAVVCSSVGSGNSLDGPSESPSLSLKRKHSNIQDIDCHSEDVEEESGDGRKEAGPSRTGLGSKRSRSAEVHNLSERRRRDRINEKMRALQELIPNCNKVDKASMLDEAIEYLKSLQLQVQIMSMASGYYLPPAVMFPPGMGHYPAAAAAMAMGMGMPYAMGLPDLSRGGSSVNHGPQFQVSGMQQQPVAMGIPRVSGGGIFAGSSTIGNGSTRDLSGSKDQTTTNNNSNLKPIKRKQGSSDQFCGSS [E31A;G37A] the “effect of a mutation on the interaction” value was “decreasing interaction”.

Variants of: B2
Details: with phyb_arath PHYB
For MEHQGWSFEENYSLSTNRRSIRPQDELVALLWRDAQVVLQSQTHREQTQTQKQDHHEEALRSSTFLEDQETVSWIQYPPDEDPFEPDDFSSHFFSTMDPLQRPTSETVKPKSSPEPPQVMVKPKACPDPPPQVMPPPKFRLTNSSSGIRETEMEQYSVTTVGPSHCGSNPSQNDLDVSMSHDRSKNIEEKLNPNASSSSGGSSGCSFGKDIKEMASGRCITTDRKRKRINHTDESVSLSDAIGNKSNQRSGSNRRSRAAEVHNLSERVLHRFVYIIYNI [E29A;G35A], the “effect of a mutation on the interaction” value was “decreasing interaction”. With MEHQGWSFEENYSLSTNRRSIRPQDELVELLWRDAQVVLQSQTHREQTQTQKQDHHEEALRSSTFLEDQETVSWIQYPPDEDPFEPDDFSSHFFSTMDPLQRPTSETVKPKSSPEPPQVMVKPKACPDPPPQVMPPPKFRLTNSSSGIRETEMEQYSVTTVGPSHCGSNPSQNDLDVSMSHDRSKNIEEKLNPNASSSSGGSSGCSFGKDIKEMASGRCITTDRKRKRINHTDESVSLSDAIGNKSNQRSGSNRRSRAAEVHNLSERVLHRFVYIIYNI [G35A] the “effect of a mutation on the interaction” value was “decreasing interaction”.

Variants of: B3
Details: with phyb_arath PHYB
In the case of MEQVFADWNFEDNFHMSTNKRSIRPEDELVEALWRDGQVVLQSQARREPSVQVQTHKQETLRKPNNIFLDNQETVQKPNYAALDDQETVSWIQYPPDDVIDPFESEFSSHFFSSIDHLGGPEKPRTIEETVKHEAQAMAPPKFRSSVITVGPSHCGSNQSTNIHQATTLPVSMSDRSKNVEERLDTSSGGSSGCSYGRNNKETVSGTSVTIDRKRKHVMDADQESVSQSDIGLTSTDDQTMGNKSSQRSGSTRRSRAAEVHNLSERRRRDRINERMKALQELIPHCSRTDKASILDEAIDYLKSLQMQLQVMWMGSGMAAAAAAAASPMMFPGVQSSPYINQMAMQSQMQLSQFPVMNRSAPQNHPGLVCQNPVQLQLQAQNQILSEQLARYMGGIPQMPPAGNQMQTVQQQPADMLGFGSPAGPQSQLSAPATTDSLHMGKIG [L32A], the “effect of a mutation on the interaction” value is reported as “decreasing interaction”. MEQVFADWNFEDNFHMSTNKRSIRPEDELVELLWRDGAVVLQSQARREPSVQVQTHKQETLRKPNNIFLDNQETVQKPNYAALDDQETVSWIQYPPDDVIDPFESEFSSHFFSSIDHLGGPEKPRTIEETVKHEAQAMAPPKFRSSVITVGPSHCGSNQSTNIHQATTLPVSMSDRSKNVEERLDTSSGGSSGCSYGRNNKETVSGTSVTIDRKRKHVMDADQESVSQSDIGLTSTDDQTMGNKSSQRSGSTRRSRAAEVHNLSERRRRDRINERMKALQELIPHCSRTDKASILDEAIDYLKSLQMQLQVMWMGSGMAAAAAAAASPMMFPGVQSSPYINQMAMQSQMQLSQFPVMNRSAPQNHPGLVCQNPVQLQLQAQNQILSEQLARYMGGIPQMPPAGNQMQTVQQQPADMLGFGSPAGPQSQLSAPATTDSLHMGKIG [Q38A] was tested, and the “effect of a mutation on the interaction” value was “decreasing interaction”. With MEQVFADWNFEDNFHMSTNKRSIRPEDELVELLWRDAQVVLQSQARREPSVQVQTHKQETLRKPNNIFLDNQETVQKPNYAALDDQETVSWIQYPPDDVIDPFESEFSSHFFSSIDHLGGPEKPRTIEETVKHEAQAMAPPKFRSSVITVGPSHCGSNQSTNIHQATTLPVSMSDRSKNVEERLDTSSGGSSGCSYGRNNKETVSGTSVTIDRKRKHVMDADQESVSQSDIGLTSTDDQTMGNKSSQRSGSTRRSRAAEVHNLSERRRRDRINERMKALQELIPHCSRTDKASILDEAIDYLKSLQMQLQVMWMGSGMAAAAAAAASPMMFPGVQSSPYINQMAMQSQMQLSQFPVMNRSAPQNHPGLVCQNPVQLQLQAQNQILSEQLARYMGGIPQMPPAGNQMQTVQQQPADMLGFGSPAGPQSQLSAPATTDSLHMGKIG [G37A] the “effect of a mutation on the interaction” value was “decreasing interaction”. With MEQVFADWNFEDNFHMSTNKRSIRPEDELVALLWRDGQVVLQSQARREPSVQVQTHKQETLRKPNNIFLDNQETVQKPNYAALDDQETVSWIQYPPDDVIDPFESEFSSHFFSSIDHLGGPEKPRTIEETVKHEAQAMAPPKFRSSVITVGPSHCGSNQSTNIHQATTLPVSMSDRSKNVEERLDTSSGGSSGCSYGRNNKETVSGTSVTIDRKRKHVMDADQESVSQSDIGLTSTDDQTMGNKSSQRSGSTRRSRAAEVHNLSERRRRDRINERMKALQELIPHCSRTDKASILDEAIDYLKSLQMQLQVMWMGSGMAAAAAAAASPMMFPGVQSSPYINQMAMQSQMQLSQFPVMNRSAPQNHPGLVCQNPVQLQLQAQNQILSEQLARYMGGIPQMPPAGNQMQTVQQQPADMLGFGSPAGPQSQLSAPATTDSLHMGKIG [E31A] the “effect of a mutation on the interaction” value was “decreasing interaction”.

Variants of: B4
Details: with phyb_arath PHYB
In the case of MMFLPTDYCCRLSDQEYMALVFENAQILAKGQRSNVSLHNQRTKSIMDLYEAEYNEDFMKSIIHGGGGAITNLGDTQVVPQSHVAAAHETNMLESNKHVDDSETLKASSSKRMMVDYHNRKKIKFIPPDEQSVVADRSFKLGFDTSSVGFTEDSEGSMYLSSSLDDESDDARPQVPARTRKALVKRKRNAEAYNSPERNQRNDINKKMRTLQNLLPNSHKDDNESMLDEAINYMTNLQLQVQMMTMGNRFVTPSMMMPLGPNYSQMGLAMGVGMQMGEQQFLPAHVLGAGLPGINDSADMLRFLNHPGLMPMQNSAPFIPTENCSPQSVPPSCAAFPNQIPNPNSLSNLDGATLHKKSRKTNR [E19A;G25A], the “effect of a mutation on the interaction” value is reported as “decreasing interaction”.
